Experimental data as given in US8653039 (INDIANA UNIVERSITY RESEARCH AND TECHNOLOGY CORPORA, dated 2014).
Where no end group is shown, it is not given here.

Columns and labels:
[1] = target: T1, cancer specific isoform of proliferating cell nuclear antigen (caPCNA) (human, UniProt P12004 1-261, acidic isoform; the filing says it differs from nmPCNA by post-translational modification, not by a genetic change; the residues are not stated); test: competition ELISA, caPCNAab on the plate, purified caPCNA, XPG peptide in increasing amounts
T1 construct: Native protein from MCF7 cell extract, nuclear extract or synthesome fraction, or 'isolated/purified caPCNA' in the ELISAs; also called csPCNA; ca(cs)PCNA
Method: The wells are washed and then incubated with a goat anti-PCNA antibody (C20) that recognizes the C-terminal 20 amino acids of PCNA. Bound C20 antibody is visualized with an alkaline phosphatase conjugated anti-goat IgG antibody, and bound antibody complex is visualized with […], and quantified by spectrophotometry. The competition experiments shown in this study involve the simultaneous incubation of the ca(cs)PCNA with increasing amounts of the antigenic peptide fragment of caPCNA (referred to as B1 or the PCNA aa126-133 peptide) in this assay.
The ELISA described herein was used to monitor the ability of two peptides to disrupt caPCNA binding to the bound caPCNA antibody. One peptide (H-Gly-Arg-Lys- […] OH) (SEQ ID NO: 29) corresponding to the p21cip/waf1 proteins site of interaction with PCNA was evaluated in this assay, and is shown to have no effect on the binding of caPCNA to the bound caPCNA antibody in this ELISA assay (FIG. 7). […] Therefore, the XPG peptide interacts with its recognized PCNA binding site in order to block binding of the PCNA protein to the caPCNA antibody. This happens if the epitope recognized by the antibody was masked by specifically binding this XPG peptide.

[2] = target: cancer specific isoform of proliferating cell nuclear antigen (caPCNA) (human) (UniProt P12004); test: capture ELISA, XPG-GST on the plate, cell extracts, detection with C20 anti-PCNA antibody
Sequence of cancer specific isoform of proliferating cell nuclear antigen (caPCNA) (human) (P12004 whole entry, canonical isoform): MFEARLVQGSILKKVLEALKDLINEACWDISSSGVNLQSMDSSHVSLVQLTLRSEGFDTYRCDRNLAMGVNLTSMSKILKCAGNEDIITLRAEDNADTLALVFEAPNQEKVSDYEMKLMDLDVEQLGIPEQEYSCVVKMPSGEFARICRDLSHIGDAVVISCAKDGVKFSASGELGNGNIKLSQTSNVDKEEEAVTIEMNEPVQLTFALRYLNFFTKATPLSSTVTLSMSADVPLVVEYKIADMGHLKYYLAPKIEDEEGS

T1 sequence (P12004 whole entry, canonical isoform): as above

binding result [1] | fold colored product (absorbance at 405 nm), MCF7 extract against MCF10A extract [2] | Binder
binds |  | H-QTQLRIDSFFR-OH [XPG peptide corresponding to the XPG-PCNA interaction site of the XPG protein]
 | 3 fold | LKQLDAQQTQLRIDSFFRLAQQEKEDAKR (peptide, UniProt P28715 981-1009, looked up, not shown: a dimerising Fc or GST, also: fused to GST, order of parts and linker not given here) [XPG-GST fusion protein]
